# Patent publication US7880021B2, “Compounds and kits for the detection and the quantification of cell apoptosis” (Centre National de la Recherche Scientifique (CNRS), priority 2005, dated 2011)
# Numbered stars: 1 amine (or outer) side, 2 acyl side, 3 side chain; on linkers, the order of the positions; unused ones are H or OH. Bridge positions count the residues as written; N and C are the ends. Square brackets hold non-standard residues; d marks the D form. Peptide text beside a SMILES is read from it. I, II: the chains in the order shown. Actinocin(9to1) = Cc1c2oc3c(C)ccc(C(=O)[*:1])c3nc-2c(C(=O)[*:2])c(N)c1=O; NMeV = CN[C@H](C(=O)O)C(C)C; Sar = CNCC(=O)O
# B1: annexin V-FITC: Annexin V labelled with fluorescein isothiocyanate, kit from Immunotech; reference apoptosis marker (protein, UniProt P08758 2-320, looked up)
# Annexin A5: AQVLRGTVTDFPGFDERADAETLRKAMKGLGTDEESILTLLTSRSNAQRQEISAAFKTLFGRDLLDDLKSELTGKFEKLIVALMKPSRLYDAYELKHALKGAGTNEKVLTEIIASRTPEELRAIKQVYEEEYGSSLEDDVVGDTSGYYQRMLVVLLQANRDPDAGIDEAQVEQDAQALFQAGELKWGTDEEKFITIFGTRSVSHLRKVFDKYMTISGFQIEETIDRETSGNLEQLLLAVVKSIRSIPAYLAETLYYAMKGAGTDDHTLIRVMVSRSEIDLFNIRKEFRKNFATSLYSMIKGDTSGDYKKALLLLCGEDD
# modifications: FITC label
# Legend:
# CEM T cells = test: Determination of hypodiploid DNA with PI by flow cytometry; format: cell-based, human; conditions: actinomycin D 0.5 μg/ml for 18 h; mean±SEM
# Experimental: (§1) Human lymphoid CEM T cells were cultured in X-vivo 15 medium (Cambrex, France) at 37° C. in humidified 5% CO2 atmosphere. Cell viability was checked by trypan blue exclusion. Cells were seeded at 5×10^5 cells/ml in the presence or absence of actinomycin D (0.5 μg/ml) for 18 h. Cells were pelleted by centrifugation at 1500 rpm for 5 min and resuspended at 1×10^6 cells/ml in X-vivo 15 medium for experiments.
# To verify the proportion of apoptotic cells, measurements of hypodiploid DNA with PI by flow cytometry have been performed. After apoptotic treatment, cells were harvested and numbered. Concentration in a 70% ethanol solution in H2O was adjusted to 5×10^5 cells/ml and fixation was allowed to proceed for at least 1 h at 4° C. Cells were washed once in Hank's balanced salt solution (HBSS) before resuspension in HBSS containing RNAse (0.5 mg/ml), PI (0.1 mg/ml) and incubation for 15 min at room temperature in the dark. Samples were analysed by flow cytometry using the CELLQuest software (Becton Dickinson, San Jose, Calif.). Under these conditions, the content of hypodiploid DNA in CEM T cells was 30±2% (mean±SEM).
# T lymphocytes = test: Laser scanning confocal ratiometric imaging of T lymphocytes; format: cell-based
# Experimental: FIG. 9: Laser scanning confocal imaging of T lymphocytes stained with annexin V-FITC (a) and F2N12S (b and c). Combination of transmission and fluorescence images of cells treated with actinomycin D for 18 hours (please complete this sentence). […] Due to their low binding to annexin V, normal cells are not visualized in the fluorescence images. (b and c) Ratiometric images of normal (b) and actinomycin D-treated (c) cells stained with 0.2 μM F2N12S. […] The size of the images is 60×73.1 μm.
# FIG. 10: Time-series of confocal fluorescence ratiometric images of actinomycin D-treated T lymphocytes stained with F2N12S. The cells were treated with actinomycin D for 18 hours and then, incubated with the probe (0.2 μM) for 5 min. Images were recorded at 1 min (a), 10 min (b) and 20 min (c) post incubation. […] The size of the images is 60×73.1 μm.
# For collecting cell images, a Laser Scanning Confocal Imaging System MRC-1024 (Bio-Rad) was used. Cells in chambered cover glass were prepared by following the preparation procedure described above. The 442 nm line of a HeCd laser was used as the excitation light source. Emission was collected by using two filters: 485/30 for the N* band and 585LP for the T* band. Collected images were analyzed by the Amira 3.0 software.
# To further compare F2N12S and annexinV-derived probes, two-color ratiometric images of F2N12S-labeled cells undergoing apoptosis were recorded by laser scanning confocal microscopy and compared with intensity based images obtained using annexin V-FITC. […] Moreover, the fluorescence intensity of apoptotic cells varies considerably from cell to cell. These differences are difficult to interpret since the intensity depends on the probe concentration as well as on the size and confluence of the cells. […] According to our spectroscopy and flow cytometry data, the latter cells are apoptotic. […] Thus, unlike annexin V-FITC, these probes provide an absolute parameter, the intensity ratio, which can be calibrated, and can characterize the level of apoptosis independently of the probe/cell concentration and the excitation light intensity. In addition, the inventors have observed that in normal cells and cells on the initial steps of apoptosis, the T*/N* intensity ratio is not evenly distributed within the plasma membrane of a given cell. This may indicate an inhomogeneous lipid composition of their plasma membranes that is likely related to the presence of lipid domains.
# The inventors also follow apoptotic transformation of the plasma membrane as a function of time. Normal and actinomycin D-treated cells were stained with the corresponding probe and the fluorescence images were subsequently recorded during 20 min. […]
# T lymphoblastoid cells = test: Flow cytometry analysis with annexin V-FITC, PI and F2N12S; format: cell-based, human
# Source text: FIG. 6: Flow cytometry analysis of T lymphoblastoid cells treated by actinomycin D. Cells were stained by annexin V-FITC, PI and F2N12S. In (a), Annexin V-FITC and PI were selectively excited at 488 nm. Cells are sorted into living, dead and apoptotic cell populations. In (b), F2N12S is selectively excited at 407 nm. Living cells are discriminated from apoptotic and necrotic cells. In (c), the PI fluorescence intensities are plotted versus the T*/N* ratio of F2N12S. Living cells are in green, apoptotic cells are in cyan and dead cells are in orange. In (d), the populations sorted using the F2N12S/PI couple were colored according to their response with the annexin V/PI couple. The wavelengths of maximal transmission and bandwidths of used filters are indicated in brackets.
# FIG. 7: Comparison of the intensiometric response of annexin V-FITC (a) with the ratiometric fluorescence response of F2N12S (b). Living, dead and apoptotic cells were identified as described in FIG. 6, by using either the annexin V-FITC/PI (a) or the F2N12S/PI (b) couple of dyes.
# FIG. 8: Comparison of the response of annexin V-FITC and F2N12S on non-treated T lymphoblastoid cells stained by annexin V-FITC, PI and F2N12S. In (a), annexin V-FITC and PI were selectively excited at 488 nm. In (b), F2N12S is selectively excited at 407 nm. Cells are sorted into living and dead cell populations.
# as §1
# For the validation of F2N12S in cell cytometry, we used a FASCARIA™ (cell sorter) (BD Biosciences, CA, USA) equipped with an argon laser (488 nm) and a diode laser (407 nm) and emission filters DF30, DF42 and DF20 centered at 530 nm, 585 nm and 610 nm, respectively. The optical pathways corresponding to the argon laser and to the diode laser are independent. Data were analyzed using the FACSDIVA™ (cell sorter) Software (BD Biosciences). The granulation, size and fluorescence intensity were recorded at a rate of ˜1000 cells per second.
# T lymphoblastoid cells were treated with actinomycin D and labeled simultaneously by FITC-labeled annexin V, propidium iodide (PI) and F2N12S. […] The emissions of FITC and PI were collected in the spectral regions of 515-545 nm and 600-620 nm, respectively. […] The emission light in this case was collected in two spectral regions: at 515-545 nm to monitor the emission of the N* band and 564-606 nm to collect the emission of the T* band (FIG. 6b). […] The second one is characterized by a high N*/T* intensity ratio (shown in red) and can be assigned to apoptotic and dead cells.
# The probe of the invention F2N12S has been combined with PI and the fluorescence intensities of PI have been represented as a function of the T*/N* ratio of F2N12S (FIG. 6c). In this case, the populations of apoptotic and dead cells are clearly discriminated by using the differences in the PI intensities. […] This conclusion was further strengthened when the populations discriminated by the F2N12S/PI couple were colored according to their response with the annexin V-FITC/PI couple (FIG. 6d).
# [1] = actinomycin D-treated cells, probe combined with PI
Molecule,content of hypodiploid DNA (CEM T cells),"time-dependent change of the fluorescence images (T lymphocytes; actinomycin D-treated cells, images recorded during 20 min)",which cells are stained in fluorescence images (T lymphocytes; normal and actinomycin D-treated cells),percentage of apoptotic cells (T lymphoblastoid cells; [1]),percentage of dead cells (T lymphoblastoid cells; [1]),percentage of living cells (T lymphoblastoid cells; [1]),percentage of dead cells (T lymphoblastoid cells; non-treated T lymphoblastoid cells)
"Cc1c2oc3c(C)ccc(C(=O)N[C@@H]4C(=O)N[C@H](C(C)C)C(=O)N5CCC[C@H]5C(=O)N(C)CC(=O)N(C)[C@@H](C(C)C)C(=O)O[C@@H]4C)c3nc-2c(C(=O)N[C@@H]2C(=O)N[C@H](C(C)C)C(=O)N3CCC[C@H]3C(=O)N(C)CC(=O)N(C)[C@@H](C(C)C)C(=O)O[C@@H]2C)c(N)c1=O [actinomycin D, Actinomycin D] (I: T[dV]P[Sar][NMeV] / II: T[dV]P[Sar][NMeV]; ester I:1-I:C, II:1-II:C; linker I:N-II:N via Actinocin(9to1))",30±2%,–,–,–,–,–,–
B1,–,not possible to detect any time-dependent changes,labels only apoptotic and necrotic cells,18%,49%,33%,5%
